Assay [1] deals with T1, HCoV-229E S glycoprotein wild-type soluble ectodomain (residues 1-1116) with C-terminal GCN4 trimerization … (HCoV-229E, UniProt P15423 16-1116). The assay is described as follows: SPR; OpenSPR; hAPN immobilised on COOH sensor chip; S trimer peak 3 sample injected at 0, 3.13, 6.25, 12.5 and 25 nM; HBS-EP+ buffer; 298 K; one-to-one binding model. The note with it: both partners purified.

The target in assay [2] is T1, HCoV-229E S glycoprotein wild-type …. The experiment in a line: SPR; OpenSPR; hAPN immobilised on COOH sensor chip; S trimer peak 2 sample injected at 0, 6.25, 12.5, 25 and 50 nM; HBS-EP+ buffer; 298 K; one-to-one binding model. The note with it: both partners purified. (In general: In SPR one partner is held on a chip, and binding of the other changes the refractive index at the surface.)

What is called Kd is the concentration at which binding is half-saturated. The low end stands for a tighter complex, the high end for a looser complex. One may read the koff as a measure of how fast the partners let go of each other. A higher koff goes with fast dissociation. One may read the kon as the rate constant with which the complex forms. A high value points to fast association.

B1: human aminopeptidase N (receptor)
chain: DQSKAWNRYRLPNTLKPDSYRVTLRPYLTPNDRGLYVFKGSSTVRFTCKEATDVIIIHSKKLNYTLSQGHRVVLRGVGGSQPPDIDKTELVEPTEYLVVHLKGSLVKDSQYEMDSEFEGELADDLAGFYRSEYMEGNVRKVVATTQMQAADARKSFPCFDEPAMKAEFNITLIHPKDLTALSNMLPKGPSTPLPEDPNWNVTEFHTTPKMSTYLLAFIVSEFDYVEKQASNGVLIRIWARPSAIAAGHGDYALNVTGPILNFFAGHYDTPYPLPKSDQIGLPDFNAGAMENWGLVTYRENSLLFDPLSSSSSNKERVVTVIAHELAHQWFGNLVTIEWWNDLWLNEGFASYVEYLGADYAEPTWNLKDLMVLNDVYRVMAVDALASSHPLSTPASEINTPAQISELFDAISYSKGASVLRMLSSFLSEDVFKQGLASYLHTFAYQNTIYLNLWDHLQEAVNNRSIQLPTTVRDIMNRWTLQMGFPVITVDTSTGTLSQEHFLLDPDSNVTRPSEFNYVWIVPITSIRDGRQQQDYWLIDVRAQNDLFSTSGNEWVLLNLNVTGYYRVNYDEENWRKIQTQLQRDHSAIPVINRAQIINDAFNLASAHKVPVTLALNNTLFLIEERQYMPWEAALSSLSYFKLMFDRSEVYGPMKNYLKKQVTPLFIHFRNNTNNWREIPENLMDQYSEVNAISTACSNGVPECEEMVSGLFKQWMENPNNNPIHPNLRSTVYCNAIAQGGEEEWDFAWEQFRNATLVNEADKLRAALACSKELWILNRYLSYTLNPDLIRKQDATSTIISITNNVIGQGLVWDFVQSNWKKLFNDYGGGSFSFSNLIQAVTRRFSTEYELQQLEQFKKDNEETGFGSGTRALEQALEKTKANIKWVKENKEVVLQWFTENSK
B1: in assay [1], binding was characterised by a dissociation constant (Kd) of 6.78 nM, the koff worked out at 0.000485 s⁻¹ and the kon was found to be 71500 M⁻¹ s⁻¹. In assay [2], the Kd stood at 36.3 nM, the koff came out at 0.00115 s⁻¹ and the kon came to 31800 M⁻¹ s⁻¹.

These data come from article PMC7794242, “Cryo-EM analysis of the HCoV-229E spike glycoprotein reveals dynamic prefusion conformational changes” (Nature Communications, 2021).
